50 sequences from the domain aggregation screens of Martell et al. (2025) can be followed below.

The nature of the data set: soluble fraction after stress (log2 fold change); higher = more stays soluble; pooled small domains, quantitative proteomics. The note with it: stress: 50 degC. In short, it runs like this: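 Quantitative proteomics served as the high-throughput read-out for pooled custom libraries of small protein domains. Each was stressed at 50°C. Aggregation propensity is expressed as the base-two log fold change in soluble protein after stress. A higher value means a larger share of the protein remains in solution.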

As to “HMDLMQRVIIVRPVMQGDYLTRAHLGLQTLSRNGGGGFTDIDDLVGRRAKKSLRAGLVVHNRHL”, the “soluble fraction (log2)” value was -0.694.

Regarding “HMIEQIELEARVPDELGGQRLDQVAAQMFDDFSRSRLTGWIRDGSLTADGQQLRPRDIVYGGTLLQLKAEQ”, the “soluble fraction (log2)” value worked out at 0.00374.

“HMNKAYLTVADMKKDKSLKNGDVVRTLGYYGYNDGDGAVYQIKDSHPEDYHIRLDNGLDAEQINY”: the “soluble fraction (log2)” value is 0.012.

Take “HMFPELSEEEQIIVSLLQKQPDGLQINTLVVESNIPVNRMSGILFELEMKGIIRMAAGGVYRLL”: the “soluble fraction (log2)” value was -0.203.

Regarding “HMHMELHEKIRLARELNKWSQEEVAEKLEMSPSGYAKIERGETALNIPRLEQIAEIFNIDIWELVKA”, the “soluble fraction (log2)” value is -0.573.

Take “HMVKGIVPNLIGKTQDEAKQMAEEYGFSIGTVSEKASDKPKGTVIEQSPKAGAKASGVTSINIVVSDGS”: the “soluble fraction (log2)” value was -0.0342.

Turning to “HMSEEGTIPDVSGQDEASAQKALENAGFTNIKSEAVYSEEEQGTVIDTNPTAGTKVSKDTEITMQVSKGSE”, the “soluble fraction (log2)” value is -0.34.

Take “HMFSQDQIFLRSGEKIDARVIEVTPEFIKYKSKANPEGPLYSKKITDVLLITYANGTTEVYE”: the “soluble fraction (log2)” value is -0.00684.

Take “HMDSRQIIAALQARYADETGITALKIKFNNVLGYFVDVPARYGDPLMKPPLSETFIHRQTLASNVRF”: the “soluble fraction (log2)” value was -0.0732.

As to “HMNASVIADLFRQTGASVMIHGHTHRPDIHALEANGDAAFRAVLGAWHTEGSMIRVTQDDVTLIAFP”, the “soluble fraction (log2)” value was found to be 0.0376.

In the case of “HMSNWTILIIQGSAHLIDLDSKITEIDGFGSFPTKILQDYNLNEEFEIFDTNVKMVNSVQSDLQSN”, the “soluble fraction (log2)” value was -2.56.

On to “HMPPRFVPATGADLRRWLDVSGLTAEAAGDLLGVSGARFRQWLSRYRSAPLPDPVRALLVALLRP”, for which the “soluble fraction (log2)” value was -0.155.

As to “HMNIVINVDTPTFEQMKATYQAPGTLPAGASFHAKLKGVTVTGYTKSHKVMFQGALANQEAARWQ”, the “soluble fraction (log2)” value was -0.92.

Regarding “HMGGTATDYYNQGRTAYDVGDYNGALMNFQEAVRLDPRYGEAYYGLGKAYEALNMQNQALDAYLSAI”, the “soluble fraction (log2)” value was -0.16.

For the sequence “HMSAQDLIVRRDSARIEARVTEISPTEIRYKRASNPDGPTYVLPLGDVRSIRYANGEEEVFAPA”, the “soluble fraction (log2)” value is -0.138.

As to “HMSSIHQDAKQQLHEYIRTYIQPLMRAGKQVTVWDIIGHVTIRKPKLVQKIGTQQLINMVQDLLE”, the “soluble fraction (log2)” value was -0.213.

Consider “HMERAPAYPDGLTQREVEVLRLIASGKTDREIAEELFIGVRTVSTHVGNILNKTNSANRTEAASYANQQGL”, for which the “soluble fraction (log2)” value was -0.191.

On to “HMHSEISGGSKDPFRFMPHLGVEDIHAETDRLSGSGVEFIREPDQESWGGWVATFKDPDGNILQLLQL”, for which the “soluble fraction (log2)” value was found to be 0.25.

Consider “HMAGAITEREVEVLELLSRGLGNKEIAKELFVSEATVKSHLSHIYTKLAVDTRAGAVAAAIERRIIRAWR”, for which the “soluble fraction (log2)” value was -1.92.

Take “HMGIKLSDRQMQIVEIVKSQQPITSEQVAERLNLTRAALRSDLSILTMAGILEARPKVGYSLTGR”: the “soluble fraction (log2)” value was -0.334.

Take “HMTITDDETHKVLEEGASRMSEGLTFRDLVDLDRLHLTARGVIQKVLNENRIDADVDTIANMAQKLVARVS”: the “soluble fraction (log2)” value was -0.0539.

Turning to “HMSDSLVLTGVAYVDGKPVVTLFDKVKKESLVVTDQPNLKGWTLVEATQSSDIKRATAKVNIGGEPVSIRY”, the “soluble fraction (log2)” value turned out to be 0.117.

For the sequence “HMQNYNLTQQEKKVLQLLVSGKSYKMIAAELNVAFDTVKSHITNIYSKLHVHSGTEAVSVAIRDKI”, the “soluble fraction (log2)” value was -0.444.

Turning to “HMIAVSQEQIKQIIVDDPSFHDANGKFSQALLTQYLNQRRMSEDQFVEEIRDQFLFQNLQNLVQNG”, the “soluble fraction (log2)” value was found to be 0.0233.

Consider “HMDFDPDVPSREDILQAFRDSKPPLTVNALISEFGLSRDASIVGLERRMGAMQRDGQLEQTPSGWQLSV”, for which the “soluble fraction (log2)” value was -0.158.

For the sequence “HMERYLLRDNIPNALHGERLDRVIAIMTGLSRSAVSALIKSNQVLRNGQIAQSISEKVVEGDELEVHLEP”, the “soluble fraction (log2)” value is -0.0223.

Consider “HMTKLSPKEKSILHIIGDNAGIKSGQIAKRLDIPSPTVKRILSDLVSQNLIEKFGTGPGTNYSI”, for which the “soluble fraction (log2)” value was determined as 0.0531.

In the case of “HMLNERQKKIIKILKDNKNWMTGKELSEFLNVSDRTIRSDIEYINRYNNALIESNVKNGYHLNFE”, the “soluble fraction (log2)” value was found to be 0.12.

Take “HMSTASPEELRQTPERRRLIEYLREHGGHGRTSEIAAALGIDDSTASRLLRRLADNGLIVRTQYGEYTLLQ”: the “soluble fraction (log2)” value was found to be 0.0183.

Regarding “HMSLIDYLNELMNEKNITVAQVAKNSGIGEYVYKIFNGERNAKRDTLVAISFGMHLNFEETQLLLRIA”, the “soluble fraction (log2)” value is -0.682.

Consider “HMSVPEAAERAIDVAQMRRALGELSPEQQRVLELAYFGGLTRQEIARATGTPLGTVHTRARLGLQNLRARL”, for which the “soluble fraction (log2)” value is -0.299.

With “HMLMDVRVPDIIGVEINQAKEILTASSLLIGKITYVSLPEIEKDLVIETSVLAGRRVSAGTVIDITVNKE”, the “soluble fraction (log2)” value is -0.76.

For the sequence “HMPRYSGMFAAWLHKALARMGKSMSDSARSAFTERVELDYSSANNELQKLSLLVGDRKVITEADVMRAIG”, the “soluble fraction (log2)” value was -0.292.

Turning to “HMKMLEINDNDSVGLKNLKTQYNHNQKVIENFQLEINKVINDGELPDKYLLDGMEKYQKLNMQIMSTIEKQ”, the “soluble fraction (log2)” value was determined as 0.00483.

In the case of “HMPLITLSAEIQSEQIGQRLDQTLAELFPEYSRSRLKTWIEADLVKLNNQIVNIPREKVLGGEHVEITVDI”, the “soluble fraction (log2)” value is -0.611.

Take “HMPVYEEEVPAALDGQRLDRVVAMVTGLSRSEVGALLAAGAVTVDGTTPAKGSVRLAAGSIVSVTVS”: the “soluble fraction (log2)” value was -0.145.

Consider “HMVVYDAELLLNINPGMSYEEVKEMLGDPGMIIAGNDAENSVYRWSTGGISFMGRFENGALIRKSIISP”, for which the “soluble fraction (log2)” value was -0.621.

Take “HMRMTRQRKVILEELGKVYTHPTADEIYTMVKEKLPNISLGTVYRNLDLLAENNQVLKLETAGNIRRYD”: the “soluble fraction (log2)” value was -0.0847.

Consider “HMLIVLKPNVSQEEIDHIVDKIRSLSLEPHVSTGVQRTIITVIGDEDVIREQPLEALAGVESVKSILKP”, for which the “soluble fraction (log2)” value was -0.0145.

As to “HMSSEITYDKFIEMVDKDQVKEVTLQSGVLTVVPKIQKSYYQNASYKVNQMEDVDALTKRLEGTGIVFHY”, the “soluble fraction (log2)” value is -0.0487.

Regarding “HMDKPVIEDVSFDDLAYMVGERVIIRTHLRSTRDGELKSFNRAGILVSLRNRPGMELEIPRSTVASAQVVW”, the “soluble fraction (log2)” value is -2.45.

Regarding “HMHPSNQELTKVLAQGSELVLAQKYIEASQIFTRVIEIDQTWAEAWNKRATVFYLLQNYEASQKDIDEV”, the “soluble fraction (log2)” value is 0.0182.

Take “HMIVVMQPGATKEQVQAVIDRVAEFGFQTKLAPGAERMVIGVVGSPLPDTLKEALERLPGVEEVIRVSKR”: the “soluble fraction (log2)” value is -0.0691.

Regarding “HMATTAGIEKYLGSGLIKGIGPIYAKKIVRKFKEDTIRIIDEEPDRLLEVEGIGQKRLEIIKQAWQQQKE”, the “soluble fraction (log2)” value was -0.391.

With “HMGRMTRKDRALATDLYGRIVGNVDDFHEGRIDYETFSERQRGLWTTLDAAGPEVKRAVLADIRERL”, the “soluble fraction (log2)” value was -0.187.

Turning to “HMSRWHEFLNKSEDGMKELDEQNQKVLTLLILQRFYQTPFQAKEDEEFYREFFERLSSVNEILG”, the “soluble fraction (log2)” value was 0.0126.

With “HMGKDIYLTSGWVEKFDELNEFSNSVDNYDRLNQFGMYENAIIGDTGVIKITDEMIFDLYEKIQVPVEAGP”, the “soluble fraction (log2)” value was -0.185.

On to “HMARSVAEFVERGRSGGSLERPKLQRMLEYIQDRPVDFVIVHKIDRLARNRADDAAITKTIRGAGAYLVST”, for which the “soluble fraction (log2)” value is -0.0402.

Turning to “HMATPKRGFRKQLAPLVQSGTITREEAGELSRSSGDATALRTKIGELMKAGKLTRKEAGELYSDAFPENA”, the “soluble fraction (log2)” value was determined as 0.153.

Consider “HMLTKSELVFDTLKKRIIDGELEPGTELVISRISEEFNVSTIPVREAIKTLASEGLVEMEPHKSAKVAE”, for which the “soluble fraction (log2)” value was -0.0631.
